Measurements published in article PMC7761207, “Molecular Characterization of the Burkholderia cenocepacia dcw Operon and FtsZ Interactors as New Targets for Novel Antimicrobial Design” (Antibiotics, 2020).
Where two headings read alike, the source gives them in different places.

T1: MraZ (Burkholderia cenocepacia J2315) (UniProt B4E6K1)
T1 sequence: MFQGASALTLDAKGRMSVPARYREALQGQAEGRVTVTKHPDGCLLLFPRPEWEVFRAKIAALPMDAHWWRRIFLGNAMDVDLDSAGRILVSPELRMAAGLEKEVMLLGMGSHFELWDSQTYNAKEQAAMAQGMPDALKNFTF

B1: B. cenocepacia J2315 FtsZ, BACTH hybrid (natural protein, Burkholderia cenocepacia J2315, UniProt B4E5Y7 1-398, looked up)
chain: MEFEMLETETNGTIIKVVGVGGAGGNAVQHMINRGVQGVDFIVMNTDAQALSRSRASSVIQLGNTGLGAGAKPEMGRAAAEEARERIADALRGAHMVFITAGMGGGTGTGAAPVVAQIAKEMGILTVGVVSKPFEFEGGKRMRVAEAGSQQLEDHVDSLIVVLNDKLFDVMGDDAEMDKCFQCADDVLNNAVAGIAEIINVDGLVNVDFEDVKTVMGEQGKAMMGTATVAGVDRARLAAEQAVASPLLEGVDLSGARGVLVNITSSRSLRLSETREVMNTIKSYAAEDATVIFGAVYDDAMGDALRVTVVATGLGRAAKKQQSAPMTLLRTGTDNQPVSAVSHGYAPAQHVSTADYGALDTPAVWRNSRETAASHVQALQEKGVDTYDIPAFLRKQAD
notes: FtsZ of Burkholderia cenocepacia J2315; gene amplified from genomic DNA; Cloned in all four BACTH vectors (pUT18, pUT18C, pKT25, pKNT25); by its place between BCAL3458 and BCAL3456 probably BCAL3457 (surmised); source: bacterial two-hybrid (BACTH) fusion, E. coli BTH101
B2: putative SulA (pBCA006) of B. cenocepacia J2315, BACTH hybrid (natural protein, Burkholderia cenocepacia J2315, UniProt B4EQP0 1-238, looked up)
chain: MHPALAHPEAIHPALWRASQLARPSVRGVDTGHLELTAELPGGGWPAGALIELLAPQPGIGELRLLAPVLARTAGKPVMLIQPPHALQPLALAYWGIDPSGFVTLPAPRTADALWAAEQALRAGTCAAVLLWQSHVRADALRRLNLAAQSGQALFYLFRPVAAARDASPAPLRLALAPKRDGIDVTFLKRRGPARDTPLFVPLSPSPILLNRHASLDRRASAAPQPRSVPATIAGAVA
notes: putative SulA, product of gene pBCA006 of Burkholderia cenocepacia J2315; Cloned in all four BACTH vectors; source: bacterial two-hybrid (BACTH) fusion, E. coli BTH101
B3: B. cenocepacia J2315 ZipA, BACTH hybrid (natural protein, Burkholderia cenocepacia J2315, UniProt B4ECN7 1-424, looked up)
chain: MDELTLGLIGAGAVVVGGVVVYNAWQGAKVRRRMPRPMPEEAAEAMNRPERDEELPFIEPVRQPVRREPAAPVAAATAAAETARVEPTFGGAAPADTPADLQAEATGVDTSAESSEPAAGEEAVPAATHDAAAEPAEPTEPVMPAATTVSSAPPAIVDRRIDCIVPIRLTGPLPGDKILPVAQRLRRAGSKPVHIEGKPEGGQWELLQNGVRYEELRAAAQLANRSGALNELEFSEFVTGVQQFADAIDGAPEFPDMMETVAMARELDAFAAQCDAQLSINVMSDGAPWSANYVQAVASQDGLLLSRDGTRFVKLDAKQNPVFMLQFGDTNFLRDDLTYKGGNMITLVLDVPVAEEDILPFRLMCDYAKSLSERIGARVVDDSRRPLPESTLLAIEQQLMKLYAKLEEAGIPAGSPVTRRLFSQ
notes: ZipA of Burkholderia cenocepacia J2315 (gene zipA, BCAL2097); Cloned in all four BACTH vectors; source: bacterial two-hybrid (BACTH) fusion, E. coli BTH101
B4: B. cenocepacia J2315 FtsA, BACTH hybrid (natural protein, Burkholderia cenocepacia J2315, UniProt B4E6I8 1-410, looked up)
chain: MSKDYKDLLVSLDIGTSKVVAIVAELKGEGHYEVIGLGQSESKGLKKGVVVNIEATVQSIQRALEEAELMADCKITNVFTGIAGSHIRSFNSSGMVAIKDKEVTQTDVARVIETAKAINIPTDQQVLHILTQEFIIDGQEDVREPIGMSGIRLEVKVHIVTGAVSAAQNIVKCVRRCGLEVNDLILQPLASSLAVLTEDEKDLGVVLVDIGGGTTDIAIFAEGAIRHTAVIPIAGDQITSDIAMALRTPTPDAEDIKVGYGIAKQALADPDEMVEVPGLGERGPRTLSRQALAAVIEPRVEELFSLVQQVVRESGYEELLSSGVVITGGASMMPGMVELGEDIFLKPVRIGAPEYAGGLSDVVRNPRYSTAMGLLVEGSAQRMRGRKVAVQSGNAGQVFSRMKEWFLSNF
notes: FtsA of Burkholderia cenocepacia J2315 (gene ftsA, BCAL3458); Cloned in all four BACTH vectors; source: bacterial two-hybrid (BACTH) fusion, E. coli BTH101

What was measured:
[1] = biological target: T1, MraZ (Burkholderia cenocepacia J2315); test: competition; settings: 20 mM Tris-HCl pH 7.5, 100 mM NaCl, 5 mM MgCl2, 0.1 mM DTT, 150 ng/uL BSA, 50 ng/uL herring sperm DNA, 30 min 37 C; 1.5% agarose in 0.5x TBE at 4 C
[2] = biological target: T1, MraZ (Burkholderia cenocepacia J2315); test: EMSA; settings: 20 mM Tris-HCl pH 7.5, 100 mM NaCl, 5 mM MgCl2, 0.1 mM DTT, 150 ng/uL BSA, 50 ng/uL herring sperm DNA, 30 min 37 C; 1.5% agarose in 0.5x TBE at 4 C
[3] = biological target: B. cenocepacia FtsZ, protein of the sedimentation assays (Burkholderia cenocepacia); test: co-sedimentation; with vesicles of E. coli total lipid extract (2 mg/mL); proteins 12 uM, 25 mM PIPES pH 6.8, 10 mM MgCl2, 2 mM GTP and/or ATP; 10 min 30 C; 20,000 x g 25 min 20 C
[4] = biological target: B1; test: two-hybrid; BACTH (bacterial adenylate cyclase two-hybrid) in E. coli cya strain BTH101; T18 and T25 hybrids; beta-galactosidase on LB-IPTG-X-Gal and MacConkey plates and in liquid culture, 30 C; at least four-fold over BTH101(pUT18/pKT25) counted as an interaction
[5] = biological target: B4; test: as above
[6] = biological target: B. cenocepacia J2315 FtsZ, BACTH hybrid (Burkholderia cenocepacia J2315) (UniProt B4E5Y7); test: as above
[7] = biological target: the molecule itself; test: as above

“AAGTTGCACTAGCTCATTCATTTATAACGGTTTTTGGAATGAGGGGTCGCATGAGCATGTGCGCGTAAGTCCTTGTTCTAACTAACAAAATTCGTCAAAAAAGCGGGCCGCTCCCTTGACCGTGCCACACCCTTCCTCTAAAGTGGGAGACAGTGTGAGAAAGTGTATTTTTGTGTGATTTAGCAGGCTATTCCGGCTAAATTCTCAGCATTGAGCGGGTGCTTCGGTGCCCTGAACGGGAGAGCGGAAA (double strand) [BS2 unlabeled]” was tested, and the binding [1] was “binds”.

“AAGTTGCACTAGCTCATTCATTTATAACGGTTTTTGGAATGAGGGGTCGCATGAGCATGTGCGCGTAAGTCCTTGTTCTAACTAACAAAATTCGTCAAAAAAGCGGGCCGCTCCCTTGACCGTGCCACACCCTTCCTCTAAAGTGGGAGACAGTGTGAGAAAGTGTATTTTTGTGTGATTTAGCAGGCTATTCCGGCTAAATTCTCAGCATTGAGCGGGTGCTTCGGTGCCCTGAACGGGAGAGCGGAAA (double strand) [BS2-6-Fam]” was tested, and the binding [2] was “binds”.

“B. cenocepacia FtsZ, protein of the sedimentation assays (natural protein)” gave a percent of the protein in the pellet fraction [3] of 50%.

Molecule “B. cenocepacia J2315 FtsE, BACTH hybrid (natural protein)” has a β-galactosidase activity, fold over the control strain [4] of 50 fold.

Molecule “B. cenocepacia J2315 FtsN, BACTH hybrid (natural protein)” has a β-galactosidase activity, fold over the control strain [5] of 5 fold.

Work on “B. cenocepacia J2315 FtsQ, BACTH hybrid (natural protein)” yielded a β-galactosidase activity, fold over the control strain [6] of 16 fold.

With “B. cenocepacia J2315 ZapA, BACTH hybrid (natural protein)” the β-galactosidase activity, fold over the control strain [4] was 10 fold.

“GGAGCGGCCCGCTTTTTTGACGAATTTTGTTAGTTAGAACAAGGACTTACGCGCACATGCTCATGCGACCCCTCATTCCAAAAACCGTTATAAATGAATGAGCTAGTGCAACTTGTGAAGGTGATACGTGAGAAAGACGGCCCAGACGGGCGTGCGGACGGGGCTTTCGGGGGCGGGAAAACGAGGAGTGAGCGGGCGGTATCGGGGGCGGTGAACCGGGGCGGCGTCCCACGCCACCCCGGCGCCAATC (double strand) [BS1-6-Fam]” was tested, and the binding [2] was “no binding”.

For B1, the “β-galactosidase activity, fold over the control strain” value (“β-galactosidase activity, fold” for short) [7] was 5 fold.

With B2 the “β-galactosidase activity, fold” value ([4]; partners not purified) was 25 fold.

With B3 the “β-galactosidase activity, fold” value ([5]; partners not purified) was 32 fold and the “β-galactosidase activity, fold” value ([4]; partners not purified) was 4.5 fold.

With B4 the “β-galactosidase activity, fold” value ([4]; partners not purified) was 5 fold.
